For this assay, the target named is T1, recombinant His-PABPC1 (human, UniProt P11940 1-636).
T1 construct: hsPABPC1 expressed from pET53-DEST; also called N-His6-tagged hsPABPC1; source: E. coli Rosetta 2(DE3) pLysS, purified (HisTrap FF, HiTrap Heparin HP, Superdex 200); not shown: His6, N-terminal, kept
The assay can be described thus: pull-down; biotinylated 42-nt RNA (22 nt of the SRSF4 3′ UTR followed by A20, or by 20 V as control) on NeutrAvidin agarose beads, incubated with 2 μg His-MKRN1-WT and/or His-PABPC1, 1 h at 4 °C, 50 mM Tris-HCl pH 7.4, 500 mM KCl, 12.5 mM MgCl2, 1% Triton X-100; SDS-PAGE with Coomassie staining. Particulars: both partners purified.

T1 sequence (P11940 whole entry): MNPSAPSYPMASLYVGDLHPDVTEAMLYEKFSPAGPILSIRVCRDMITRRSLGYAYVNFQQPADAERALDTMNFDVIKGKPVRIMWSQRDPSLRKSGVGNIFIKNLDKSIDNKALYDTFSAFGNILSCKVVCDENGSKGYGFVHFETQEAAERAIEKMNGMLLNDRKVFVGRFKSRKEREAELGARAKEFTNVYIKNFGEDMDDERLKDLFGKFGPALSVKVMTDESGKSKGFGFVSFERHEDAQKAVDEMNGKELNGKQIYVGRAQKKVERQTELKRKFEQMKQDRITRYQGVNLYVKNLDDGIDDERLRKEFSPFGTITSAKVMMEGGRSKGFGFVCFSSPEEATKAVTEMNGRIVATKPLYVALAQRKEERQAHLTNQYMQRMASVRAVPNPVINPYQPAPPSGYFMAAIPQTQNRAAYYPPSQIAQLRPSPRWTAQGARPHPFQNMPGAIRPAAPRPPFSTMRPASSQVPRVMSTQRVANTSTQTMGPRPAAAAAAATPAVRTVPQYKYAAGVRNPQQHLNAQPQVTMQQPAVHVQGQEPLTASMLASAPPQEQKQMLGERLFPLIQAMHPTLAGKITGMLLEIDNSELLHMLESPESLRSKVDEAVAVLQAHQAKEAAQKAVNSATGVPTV

B1: recombinant His-MKRN1^wt (natural protein, human, UniProt Q9UHC7 1-482, looked up)
chain: MAEAATPGTTATTSGAGAAAATAAAASPTPIPTVTAPSLGAGGGGGGSDGSGGGWTKQVTCRYFMHGVCKEGDNCRYSHDLSDSPYSVVCKYFQRGYCIYGDRCRYEHSKPLKQEEATATELTTKSSLAASSSLSSIVGPLVEMNTGEAESRNSNFATVGAGSEDWVNAIEFVPGQPYCGRTAPSCTEAPLQGSVTKEESEKEQTAVETKKQLCPYAAVGECRYGENCVYLHGDSCDMCGLQVLHPMDAAQRSQHIKSCIEAHEKDMELSFAVQRSKDMVCGICMEVVYEKANPSERRFGILSNCNHTYCLKCIRKWRSAKQFESKIIKSCPECRITSNFVIPSEYWVEEKEEKQKLILKYKEAMSNKACRYFDEGRGSCPFGGNCFYKHAYPDGRREEPQRQKVGTSSRYRAQRRNHFWELIEERENSNPFDNDEEEVVTFELGEMLLMLLAAGGDDELTDSEDEWDLFHDELEDFYDLDL
notes: hsMKRN1 expressed from pET53-DEST; also called N-His6-tagged hsMKRN1; source: E. coli Rosetta 2(DE3) pLysS, purified (HisTrap FF, HiTrap Q HP, Superdex 200); not shown: His6, N-terminal, kept
On to B1, for which the binding result is “binds”.

The values are drawn from paper PMC6805484, “The RNA-binding ubiquitin ligase MKRN1 functions in ribosome-associated quality control of poly(A) translation” (Genome Biology, 2019).
